Series [1] relates to MS2 coat protein. Nature of the series: apparent KD of MS2 coat protein, switch ON state; designed switch direction (-1 OFF switch, 1 ON switch): -1; higher = weaker reporter binding. As to conditions: FMN input: 0 or 200 uM; Eterna round: R93 (includes R88 designs). The method, boiled down:
(§1)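 Apparent KD was obtained for each design as the median of normalised binding-curve fits over its clusters. RNA switches transcribed on-chip from Illumina sequencing clusters were titrated with SNAP-549-labelled MS2 coat protein (twofold steps, 0.7 or 1.5 nM to 3 µM) in 100 mM Tris-HCl pH 7.5, 80 mM KCl, 4 mM MgCl2, without or with constant ligand.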

Series [2] concerns MS2 coat protein. Nature of the series: apparent KD of MS2 coat protein, switch OFF state (with FMN for OFF switches, without FMN for ON switches); designed switch direction (-1 OFF switch, 1 ON switch): -1; higher = weaker reporter binding. Particulars: FMN input: 0 or 200 uM; Eterna round: R93 (includes R88 designs). The method, boiled down:
as §1

In the case of “AAAAAGUCAGGAUAUUCGGAUAGGAAAACGAAAACCUAUCCGAAGAAGGGACAUGAGGAUCACCCAUGUAAAAA [Ecls4-II]”, the “apparent KD of MS2 coat protein” value with MS2 coat protein [1] is 0.0489 µM; in the series on MS2 coat protein [2] it was 0.0461 µM.
For the sequence “AAAAAGUGAGGAUAUACAUGAGGAUCACCCAUGUGAAGGGAAGAGAGAGAGAGAGAGAGUAGAAGGCACAAAAA [Default title]”, the “apparent KD of MS2 coat protein” value with MS2 coat protein [1] was 0.0988 µM; with MS2 coat protein [2], 0.0963 µM.
The corresponding values for “AAAAAGUGAGGAUAUACAUGAGGAUCACCCAUGUGAUAAAAAAAAAGGGUGGAAGAAAGUAGAAGGCACCAAAA [Ex 3 May 49]” are 0.108 µM and 0.0775 µM.
On to “AAAAAGUGAGGAUAUACAUGAGGAUCACCCAUGUGUAUAAAAAAUUACACAAAAGAAAGUAGAAGGCACUAAAG [Mat - Exclusion 3 - Mayanna mod - D112]”, for which the figures for the “apparent KD of MS2 coat protein” value in the series with MS2 coat protein [1] and with MS2 coat protein [2] were 0.017 µM and 0.0308 µM, respectively.
Take “AAAAAGUGAGGAUAUACGAAAAAAAAAAAAAAAAAAGGUGAACAUGAGGAUCACCCAUGUAGAAGGCACAAAAA [Black Design]”: the “apparent KD of MS2 coat protein” value is 0.102 µM in the series with MS2 coat protein [1] and 0.312 µM in the series on MS2 coat protein [2].
On the same counts, the results for “AAAAAGUGAGGAUAUACGCGAACAAAAAAAAAAAAGAAAGCGUAGAAGGCACAUGAGGAUCACCCAUGUCCAAA [Alfred 64% 4]” are 0.028 µM and 0.039 µM.
The corresponding values for “AAAAAGUGAGGAUAUACGCGAACAAAAAUAAAAAAGAAAGCGUAGAAGGCACAUGAGGAUCACCCAUGUCCAAA [Alfred 64% 5]” are 0.0277 µM and 0.0411 µM.
The corresponding values for “AAAAAGUGAGGAUAUACGUUAAAAAAAAAAAAAAAAAAGCGGUAGAAGGCACAUGAGGAUCACCCAUGUAAAAA [Ex4 Malc#3]” are 0.0577 µM and 0.0347 µM.
“AAAAAGUGAGGAUAUAGCAAAGGUCACGAAAGUGACAAAGGCUAGAAGGCACAUGAGGAUCACCCAUGUAAAAA [Fiskers Exclusion 4 D2 63% 1]”: the “apparent KD of MS2 coat protein” value is 0.0416 µM with MS2 coat protein [1] and 0.0349 µM in the series with MS2 coat protein [2].
On the same counts, the results for “AAAAAGUGAGGAUAUGCAGUGGCCUGUAGACGCAAGCACUUGUAGAAGGCACAUGAGGAUCACCCAUGUUUAAA [EX4 Malc#30]” are 0.0309 µM and 0.028 µM.
On the same counts, the results for “AAAAAGUGAGGAUAUUCGGAUAGGAAAACGAAAACCUAUCCGAAGAAGGCACAUGAGGAUCACCCAUGUGGGAA [67% Ecls-II - Early G + late G segment 3]” are 0.0526 µM and 0.0759 µM.
As for “AAAAAGUUAGGAUAUACAUGAGGAUCACCCAUGUACAUAUAUGGAGAAAAAAACAGUAGUAGAAGGGACAAAAA [EX2 Malc#12]”, the “apparent KD of MS2 coat protein” value with MS2 coat protein [1] was 0.0206 µM; in the series on MS2 coat protein [2], 0.0198 µM.
The corresponding values for “AAAAAUCGAGGAUAUACAUGAGGAUCACCCAUGUCAAAAAAUGACUACACAAAAGAAAGUAGAAGGCGAUAAAG [Mat - Exclusion 3 - Mayanna mod - D129]” are 0.025 µM and 0.0366 µM.
Take “AAAAAUGGAGGAUAUACAUGAGGAUCACCCAUGUGUGACUAUACUAAGCGCUCUUCAGGUAGAAGGCCAAAAAA [Gilly Gone Silly 17 - Jieux - Exclusion 3]”: the “apparent KD of MS2 coat protein” value in the series with MS2 coat protein [1] came to 0.0438 µM; with MS2 coat protein [2], 0.0603 µM.
On the same counts, the results for “AAAAAUGGAGGAUAUACAUGAGGAUCACCCAUGUUAGACCUAAAAAAAGGGAAAGAAAGUAGAAGGCCAUAAAA [Ex 3 May 29]” are 0.0175 µM and 0.0206 µM.
On the same counts, the results for “AAAAAUUGAGGAUAUACGUACAUGUCAAAAGACGUGAAGGGACAUGAGGAUCACCCAUGUAGAAGGCGAAAGAA [JL Neck Breaker 13]” are 0.0371 µM and 0.016 µM.
On the same counts, the results for “AAAACACAUGAGGAUCACCCAUGUGAGGAUAUGAACGAAAUAAAAUAAAAAUAAAAGUUCAGAAGGCACAAAAA [Mat - Exclusion 1 - Eli mod - D13]” are 0.0222 µM and 0.0366 µM.
On to “AAAACACAUGAGGAUCACCCAUGUGAGGAUAUGCUAUGGAAAAUAAAAAUAAAACAUAGCAGAAGGCGCAGGAA [Denovo 20]”, for which the entries for the “apparent KD of MS2 coat protein” value in the series on MS2 coat protein [1] and with MS2 coat protein [2] were 0.0298 µM and 0.0229 µM, respectively.
Regarding “AAAACGGCAGGAUAUACAGAUGAGAACUAGACCGAAAAAAAACAUGAGGAUCACCCAUGUAGAAGGGCCAAAAA [Ex2 Malc#7]”, the “apparent KD of MS2 coat protein” value in the series on MS2 coat protein [1] is 0.0278 µM; in the series with MS2 coat protein [2], 0.0368 µM.
As for “AAAACUAGAGGAUAUACGUACAUGUCAAAAGACGUGAAGGGACAUGAGGAUCACCCAUGUAGAAGGCUAGAAAA [JL Stem Breaker 9]”, the “apparent KD of MS2 coat protein” value in the series on MS2 coat protein [1] amounted to 0.0452 µM; in the series on MS2 coat protein [2] it was 0.104 µM.
On the same counts, the results for “AAAACUGGAGGAUAUACAUGAGGAUCACCCAUGUGUGGAUGAGCUGAGACGGCAUCACGUAGAAGGCCACAAAA [Gilly Gone Silly 39 - Jieux - Exclusion 3]” are 0.0332 µM and 0.044 µM.
On to “AAAAGCUCAGGAUAUACGGUCUGUUGUUGAAAAAGUAAAAAACAUGAGGAUCACCCAUGUAGAAGGGAGCGAAA [Exclusion2-cac1]”, for which the “apparent KD of MS2 coat protein” value amounted to 0.0397 µM with MS2 coat protein [1] and 0.115 µM in the series on MS2 coat protein [2].
The corresponding values for “AAAAGCUUAGGAUAUACACAAAAUAAAGGAGUGAUAUCAGAACAUGAGGAUCACCCAUGUAGAAGGAAGAAAUA [Ceerle]” are 0.0653 µM and 0.058 µM.
Consider “AAAAGGAUAGGAUAUACAUGAGGAUCACCCAUGUGAAUAAAUAAAAUAAAUAAAUAAAGUAGAAGGGUCAAUAA [LROPPY Exclusion 3 - v05_deltaG=3.6 break up the As]”, for which the “apparent KD of MS2 coat protein” value with MS2 coat protein [1] was found to be 0.0278 µM; in the series on MS2 coat protein [2] it was 0.0254 µM.
On to “AAAAGGGCAGGAUAUGCGUACUCACGGGAAAACUGAAUGGUACAUGAGGAUCACCCAUGUAGAAGGGCUAAAAA [Dora Explored 19 - Jieux - Exclusion 2]”, for which the results for the “apparent KD of MS2 coat protein” value in the series with MS2 coat protein [1] and in the series with MS2 coat protein [2] were 0.0546 µM and 0.0378 µM, respectively.
On the same counts, the results for “AAAAGGUCAGGAUAUGCCCGCCGGGUGGGAAGGCCGGGUGGGUAGAAGGGACAUGAGGAUCACCCAUGUAAAAA [Opal 42]” are 0.0524 µM and 0.0479 µM.
Consider “AAAAGUAGAGGAUAUACAUGAGGAUCACCCAUGUAGAAAGGAAGUAUAUAUAUGGCGUGUAGAAGGCUGCAUGA [Mat - Mod of Nando]”, for which the “apparent KD of MS2 coat protein” value with MS2 coat protein [1] is 0.0267 µM; in the series with MS2 coat protein [2], 0.028 µM.
On the same counts, the results for “AAAAGUGGAGGAUAUACAUGAGGAUCACCCAUGUGUAAAAAUAAAAACACAAAAGAAAGUAGAAGGCCACAAAA [Ex 3 May 9]” are 0.0241 µM and 0.0552 µM.
For “AAAAUACAUGAGGAUCACCCAUGUCAGGAUAUGCUAAAAAAAAAAUUAAAAAAAAAAUGUAGAAGGGACUAAAA [Exclusion Z2]”, the figures for the “apparent KD of MS2 coat protein” value with MS2 coat protein [1] and in the series on MS2 coat protein [2] were 0.0537 µM and 0.04 µM, respectively.
The corresponding values for “AAAAUACAUGAGGAUCACCCAUGUGAGGAUAUGCAAAACCCAUAUAAAAAGGGAAAAAGCAGAAGGUACAAAAA [wbt round 1 mod 14]” are 0.0186 µM and 0.0277 µM.
With “AAAAUACAUGAGGAUCACCCAUGUGAGGAUAUGCUAUGGAAAAAUAAAAUAAAACAUAGCAGAAGGCACAAAAA [Mat - Exclusion 1 - Eli mod - D41]”, the entries for the “apparent KD of MS2 coat protein” value in the series with MS2 coat protein [1] and in the series with MS2 coat protein [2] were 0.0343 µM and 0.0734 µM, respectively.
The corresponding values for “AAAAUACAUGAGGAUCACCCAUGUGAGGAUAUUAGAAAGGGAAUAAAAUAACCCAAACUAAGAAGGCACAAAAA [Ex 1 May 27]” are 0.0285 µM and 0.0353 µM.
On the same counts, the results for “AAAAUACAUGAGGAUCACCCAUGUGAGGAUAUUAGAAAGGGAAUAAAAUAACUUAAACUAAGAAGGCACAAAAA [Ex 1 May 28]” are 0.0182 µM and 0.0277 µM.
The corresponding values for “AAAAUACGAGGAUAUACAUGAGGAUCACCCAUGUCAAAAAAUGACUACACAAAAGAAAGUAGAAGGCGUAAAAG [Mat - Exclusion 3 - Mayanna mod - D127]” are 0.024 µM and 0.0418 µM.
As for “AAAAUGUCAGGAUAUGCGAAGGCGUCUGACAGACGAGGAUUGCAGAAGGGACAUGAGGAUCACCCAUGUAAAAA [A Change in Energy (MS2 Riboswitch - Exclusion 4)]”, the “apparent KD of MS2 coat protein” value was found to be 0.0843 µM in the series with MS2 coat protein [1] and 0.131 µM with MS2 coat protein [2].
With “AAAAUGUGAGGAUAUCUGGAUAGGAAAAAGAAAACCUAUCCAGAGAAGGCACAUGAGGAUCACCCAUGUAAAAA [JL cataway mod 4]”, the “apparent KD of MS2 coat protein” value in the series on MS2 coat protein [1] came to 0.121 µM; with MS2 coat protein [2], 0.114 µM.
The corresponding values for “AAAAUGUGAGGAUAUGUACGAAAAAAUAAAAAAAUAAAAGUACAGAAGGCACAUGAGGAUCACCCAUGUGUGGG [EX4 400: Minimal 13]” are 0.113 µM and 0.0761 µM.
On the same counts, the results for “AAAAUGUUAGGAUAUGUGAAGGCGUCUGAUAGACGAGGCCUGCAGAAGGAACAUGAGGAUCACCCAUGUAAAAA [Mod 3 of Nando's Round 1 Power Srip]” are 0.034 µM and 0.0256 µM.
The corresponding values for “AAACACGGAGGAUAUACACCAUACAAACCUCUAAACAAAAAACAUGAGGAUCACCCAUGUAGAAGGCCGAACAA [Default title]” are 0.0247 µM and 0.028 µM.

The values are drawn from the supplement of paper PMC9170038.
